Measurements: patent US20190119358A1
*1 amine or outer side, *2 acyl side, *3 side chain or, on linkers, in order; H or OH if unused. Bridges are numbered along the chain shown (N, C = ends). Primed or numbered codes have the meaning given here. Where no end group is shown, it is not given here. [ ]: non-standard residue; d: D form. The star is where a group is joined. ξ: configuration not given here. DAPTZAC3 = (S)-3-(4-(3-acrylamidopropyl)-1H-1,2,3-triazol-1-yl)-2-aminopropanoic acid, C=CC(=O)NCCCc1cn(C[C@H](N[*:1])C(=O)[*:2])nn1; DAPTZAC2 = (S)-3-(4-(2-acrylamidoethyl)-1H-1,2,3-triazol-1-yl)-2-aminopropanoic acid, C=CC(=O)NCCc1cn(C[C@H](N[*:1])C(=O)[*:2])nn1; DAPTZAC1 = (S)-3-(4-(acrylamidomethyl)-1H-1,2,3-triazol-1-yl)-2-aminopropanoic acid, C=CC(=O)NCc1cn(C[C@H](N[*:1])C(=O)[*:2])nn1; ADTZPA″ = (S)-2-amino-3-(1-dodecyl-1H-1,2,3-triazol-4-yl)propanoic acid, CCCCCCCCCCCCn1cc(C[C@H](N[*:1])C(=O)[*:2])nn1; MORAC = (S)-5-acrylamido-2-(methylamino)pentanoic acid, C=CC(=O)NCCC[C@@H](C(=O)[*:2])N(C)[*:1]; DABAC1 = (S)-4-acrylamido-2-aminobutanoic acid, C=CC(=O)NCC[C@H](N[*:1])C(=O)[*:2]; m‑xylylene = m-xylylene thioether bridge between Cys; Trp(7-aza) = N[C@@H](Cc1c[nH]c2ncccc12)C(=O)O; NMePhe(4-F) = CN[C@@H](Cc1ccc(F)cc1)C(=O)O; ivDde = CC(C)CC(=C1C(=O)CC(C)(C)CC1=O)*; mXylylene = c1cc(C[*:1])cc(C[*:2])c1; Glutaryl = O=C(CCCC(=O)[*:2])[*:1]; dPhg = N[C@@H](C(=O)O)c1ccccc1; Chg = N[C@H](C(=O)O)C1CCCCC1; PEG4 = NCCOCCOCCOCCOCCC(=O)O; Phg = N[C@H](C(=O)O)c1ccccc1; Tle = CC(C)(C)[C@H](N)C(=O)O; ξPhg = NC(C(=O)O)c1ccccc1; NMeA = CN[C@@H](C)C(=O)O; Pra = C#CC[C@H](N)C(=O)O; Dab = NCC[C@H](N)C(=O)O; Nva = CCC[C@H](N)C(=O)O; Dap = NC[C@H](N)C(=O)O; PEG1 = NCCOCCC(=O)O; Ahx = NCCCCCC(=O)O; Sar = CNCC(=O)O

B1: R4152 (peptide)
peptide: Ac-[Nva]CA[Tle]KH[NMeA][Phg][Trp(7-aza)]Y[NMePhe(4-F)][Sar]C-NH2
modifications: linker 2-13 via mXylylene
SMILES: CCC[C@H](NC(C)=O)C(=O)N[C@H]1CSCc2cccc(c2)CSC[C@@H](C(N)=O)NC(=O)CN(C)C(=O)[C@H](Cc2ccc(F)cc2)N(C)C(=O)[C@H](Cc2ccc(O)cc2)NC(=O)[C@H](Cc2c[nH]c3ncccc23)NC(=O)[C@H](c2ccccc2)NC(=O)[C@H](C)N(C)C(=O)[C@H](Cc2c[nH]cn2)NC(=O)[C@H](CCCCN)NC(=O)[C@H](C(C)(C)C)NC(=O)[C@H](C)NC1=O
B2: R4140 (peptide)
peptide: Ac-[Nva]CY[Tle]A[Dab][NMeA][Phg][Trp(7-aza)]Y[NMePhe(4-F)][Sar]C-NH2
modifications: linker 2-13 via mXylylene
SMILES: CCC[C@H](NC(C)=O)C(=O)N[C@H]1CSCc2cccc(c2)CSC[C@@H](C(N)=O)NC(=O)CN(C)C(=O)[C@H](Cc2ccc(F)cc2)N(C)C(=O)[C@H](Cc2ccc(O)cc2)NC(=O)[C@H](Cc2c[nH]c3ncccc23)NC(=O)[C@H](c2ccccc2)NC(=O)[C@H](C)N(C)C(=O)[C@H](CCN)NC(=O)[C@H](C)NC(=O)[C@H](C(C)(C)C)NC(=O)[C@H](Cc2ccc(O)cc2)NC1=O
B3: R4153 (peptide)
peptide: Ac-[Nva]CY[Tle]KA[NMeA][dPhg][Trp(7-aza)]Y[NMePhe(4-F)][Sar]C-NH2
modifications: linker 2-13 via mXylylene
SMILES: CCC[C@H](NC(C)=O)C(=O)N[C@H]1CSCc2cccc(c2)CSC[C@@H](C(N)=O)NC(=O)CN(C)C(=O)[C@H](Cc2ccc(F)cc2)N(C)C(=O)[C@H](Cc2ccc(O)cc2)NC(=O)[C@H](Cc2c[nH]c3ncccc23)NC(=O)[C@@H](c2ccccc2)NC(=O)[C@H](C)N(C)C(=O)[C@H](C)NC(=O)[C@H](CCCCN)NC(=O)[C@H](C(C)(C)C)NC(=O)[C@H](Cc2ccc(O)cc2)NC1=O
B4: R4137 (peptide)
peptide: cyclo([Ahx]Y[Tle]KH[NMeA][Phg][Trp(7-aza)]Y[NMePhe(4-F)][Sar][Pra])
SMILES: C#CC[C@@H]1NC(=O)CN(C)C(=O)[C@H](Cc2ccc(F)cc2)N(C)C(=O)[C@H](Cc2ccc(O)cc2)NC(=O)[C@H](Cc2c[nH]c3ncccc23)NC(=O)[C@H](c2ccccc2)NC(=O)[C@H](C)N(C)C(=O)[C@H](Cc2c[nH]cn2)NC(=O)[C@H](CCCCN)NC(=O)[C@H](C(C)(C)C)NC(=O)[C@H](Cc2ccc(O)cc2)NC(=O)CCCCCNC1=O
B5: R4149 (peptide)
peptide: Ac-[Nva]CY[Tle]KH[NMeA][Chg][Trp(7-aza)]Y[NMePhe(4-F)][Sar]C-NH2
modifications: linker 2-13 via mXylylene
SMILES: CCC[C@H](NC(C)=O)C(=O)N[C@H]1CSCc2cccc(c2)CSC[C@@H](C(N)=O)NC(=O)CN(C)C(=O)[C@H](Cc2ccc(F)cc2)N(C)C(=O)[C@H](Cc2ccc(O)cc2)NC(=O)[C@H](Cc2c[nH]c3ncccc23)NC(=O)[C@H](C2CCCCC2)NC(=O)[C@H](C)N(C)C(=O)[C@H](Cc2c[nH]cn2)NC(=O)[C@H](CCCCN)NC(=O)[C@H](C(C)(C)C)NC(=O)[C@H](Cc2ccc(O)cc2)NC1=O
B6: R4142 (peptide)
peptide: Ac-[Nva]CY[Tle]AH[MORAC][Phg][Trp(7-aza)]Y[NMePhe(4-F)][Sar]C-NH2
modifications: linker 2-13 via mXylylene
SMILES: C=CC(=O)NCCC[C@H]1C(=O)N[C@@H](c2ccccc2)C(=O)N[C@@H](Cc2c[nH]c3ncccc23)C(=O)N[C@@H](Cc2ccc(O)cc2)C(=O)N(C)[C@@H](Cc2ccc(F)cc2)C(=O)N(C)CC(=O)N[C@H](C(N)=O)CSCc2cccc(c2)CSC[C@H](NC(=O)[C@H](CCC)NC(C)=O)C(=O)N[C@@H](Cc2ccc(O)cc2)C(=O)N[C@@H](C(C)(C)C)C(=O)N[C@@H](C)C(=O)N[C@@H](Cc2c[nH]cn2)C(=O)N1C
B7: R4146 (peptide)
peptide: Ac-[Nva]CY[Tle]A[DABAC1][NMeA][Phg][Trp(7-aza)]Y[NMePhe(4-F)][Sar]C-NH2
modifications: linker 2-13 via mXylylene
SMILES: C=CC(=O)NCC[C@@H]1NC(=O)[C@H](C)NC(=O)[C@H](C(C)(C)C)NC(=O)[C@H](Cc2ccc(O)cc2)NC(=O)[C@@H](NC(=O)[C@H](CCC)NC(C)=O)CSCc2cccc(c2)CSC[C@@H](C(N)=O)NC(=O)CN(C)C(=O)[C@H](Cc2ccc(F)cc2)N(C)C(=O)[C@H](Cc2ccc(O)cc2)NC(=O)[C@H](Cc2c[nH]c3ncccc23)NC(=O)[C@H](c2ccccc2)NC(=O)[C@H](C)N(C)C1=O
B8: R4141 (peptide)
peptide: Ac-[Nva]CY[Tle]A[Dap][NMeA][Phg][Trp(7-aza)]Y[NMePhe(4-F)][Sar]C-NH2
modifications: linker 2-13 via mXylylene
SMILES: CCC[C@H](NC(C)=O)C(=O)N[C@H]1CSCc2cccc(c2)CSC[C@@H](C(N)=O)NC(=O)CN(C)C(=O)[C@H](Cc2ccc(F)cc2)N(C)C(=O)[C@H](Cc2ccc(O)cc2)NC(=O)[C@H](Cc2c[nH]c3ncccc23)NC(=O)[C@H](c2ccccc2)NC(=O)[C@H](C)N(C)C(=O)[C@H](CN)NC(=O)[C@H](C)NC(=O)[C@H](C(C)(C)C)NC(=O)[C@H](Cc2ccc(O)cc2)NC1=O
B9: R4139 (peptide)
peptide: cyclo([PEG1]Y[Tle]KH[NMeA][Phg][Trp(7-aza)]Y[NMePhe(4-F)][Sar][Pra])
SMILES: C#CC[C@@H]1NC(=O)CN(C)C(=O)[C@H](Cc2ccc(F)cc2)N(C)C(=O)[C@H](Cc2ccc(O)cc2)NC(=O)[C@H](Cc2c[nH]c3ncccc23)NC(=O)[C@H](c2ccccc2)NC(=O)[C@H](C)N(C)C(=O)[C@H](Cc2c[nH]cn2)NC(=O)[C@H](CCCCN)NC(=O)[C@H](C(C)(C)C)NC(=O)[C@H](Cc2ccc(O)cc2)NC(=O)CCOCCNC1=O
B10: R4144 (peptide)
peptide: Ac-[Nva]CY[Tle]K[dP][NMeA][Phg][Trp(7-aza)]Y[NMePhe(4-F)][Sar]C-NH2
modifications: linker 2-13 via mXylylene
SMILES: CCC[C@H](NC(C)=O)C(=O)N[C@H]1CSCc2cccc(c2)CSC[C@@H](C(N)=O)NC(=O)CN(C)C(=O)[C@H](Cc2ccc(F)cc2)N(C)C(=O)[C@H](Cc2ccc(O)cc2)NC(=O)[C@H](Cc2c[nH]c3ncccc23)NC(=O)[C@H](c2ccccc2)NC(=O)[C@H](C)N(C)C(=O)[C@H]2CCCN2C(=O)[C@H](CCCCN)NC(=O)[C@H](C(C)(C)C)NC(=O)[C@H](Cc2ccc(O)cc2)NC1=O
B11: R4145 (peptide)
peptide: cyclo(Y[Tle]KH[NMeA][Phg][Trp(7-aza)]Y[NMePhe(4-F)][Sar][Pra])
SMILES: C#CC[C@@H]1NC(=O)CN(C)C(=O)[C@H](Cc2ccc(F)cc2)N(C)C(=O)[C@H](Cc2ccc(O)cc2)NC(=O)[C@H](Cc2c[nH]c3ncccc23)NC(=O)[C@H](c2ccccc2)NC(=O)[C@H](C)N(C)C(=O)[C@H](Cc2c[nH]cn2)NC(=O)[C@H](CCCCN)NC(=O)[C@H](C(C)(C)C)NC(=O)[C@H](Cc2ccc(O)cc2)NC1=O

Target: GMPPNP-loaded H-Ras or GTP-loaded K-Ras
Experiment: FP competition, displacement of probe R4007 from Ras

| Binder | IC50 |
| --- | --- |
| B1 | 28300 nM |
| B2 | 608 nM |
| Ac-[Nva]CY[Tle]KH[NMeA][Phg][Trp(7-aza)]Y[NMePhe(4-F)][Sar]C[PEG4][ADTZPA″]-NH2 (linker 2-13 via mXylylene) [R4147] | 5190 nM |
| B3 | 36400 nM |
| {Alexa Fluor 594}-[Nva]CY[Nva][Phg][NMePhe(4-F)]TP[Trp(7-aza)]C[Trp(7-aza)]EE-NH2 (linker 2-10 via m‑xylylene) [R4154] | 37400 nM |
| B4 | 411 nM |
| Ac-[Nva]SY[Tle]A[DAPTZAC2][NMeA][ξPhg][Trp(7-aza)]Y[NMePhe(4-F)][Sar]S-NH2 (also: places Phg, 7-azaTrp, NMe-4-F-Phe, Sar at 9, 10, 12, 13) [R4151] | 12200 nM |
| B5 | 6260 nM |
| Ac-[Nva]SY[Tle]A[DAPTZAC3][NMeA][ξPhg][Trp(7-aza)]Y[NMePhe(4-F)][Sar]S-NH2 (also: places Phg, 7-azaTrp, NMe-4-F-Phe, Sar at 9, 10, 12, 13) [R4148] | 6000 nM |
| B6 | 1240 nM |
| B7 | 3390 nM |
| Glutaryl-[Nva]CY[Tle]K(ivDde)H[NMeA][Phg][Trp(7-aza)]Y[NMePhe(4-F)][Sar]C-NH2 (linker 2-13 via m‑xylylene) [R4138] | 461 nM |
| Ac-[Nva]SY[Tle]A[DAPTZAC1][NMeA][ξPhg][Trp(7-aza)]Y[NMePhe(4-F)][Sar]S-NH2 [R4005] | 2070 nM |
| B8 | 695 nM |
| B9 | 522 nM |
| Ac-[Nva]CY[Tle]KH[NMeA]A[Trp(7-aza)]Y[NMeA][Sar]CGGGCVIM (linker 2-13 via mXylylene) [R4143] | 1640 nM |
| B10 | 1960 nM |
| Ac-[Nva]CY[Tle]K(4‑(dimethylamino)benzoyl‑2,3,5,6‑d4)H[NMeA][Phg][Trp(7-aza)]Y[NMePhe(4-F)][Sar]C-NH2 (linker 2-13 via mXylylene) [R4150] | 7640 nM |
| B11 | 2800 nM |
